Tests used:
[1] = molecular target: cardiac sodium channel NaV1.5 α subunit of human origin (adult isoform) (human) (UniProt Q14524)
[2] = molecular target: cardiac sodium channel NaV1.5 α subunit of human origin (adult isoform) (human) (UniProt Q14524); remark: listed apart in the source
[3] = molecular target: cardiac sodium channel NaV1.5 α subunit of human origin (adult isoform) (human) (UniProt Q14524); remark: listed apart in the source

Sequence of UniProt Q14524 (Q14524 whole entry, canonical isoform): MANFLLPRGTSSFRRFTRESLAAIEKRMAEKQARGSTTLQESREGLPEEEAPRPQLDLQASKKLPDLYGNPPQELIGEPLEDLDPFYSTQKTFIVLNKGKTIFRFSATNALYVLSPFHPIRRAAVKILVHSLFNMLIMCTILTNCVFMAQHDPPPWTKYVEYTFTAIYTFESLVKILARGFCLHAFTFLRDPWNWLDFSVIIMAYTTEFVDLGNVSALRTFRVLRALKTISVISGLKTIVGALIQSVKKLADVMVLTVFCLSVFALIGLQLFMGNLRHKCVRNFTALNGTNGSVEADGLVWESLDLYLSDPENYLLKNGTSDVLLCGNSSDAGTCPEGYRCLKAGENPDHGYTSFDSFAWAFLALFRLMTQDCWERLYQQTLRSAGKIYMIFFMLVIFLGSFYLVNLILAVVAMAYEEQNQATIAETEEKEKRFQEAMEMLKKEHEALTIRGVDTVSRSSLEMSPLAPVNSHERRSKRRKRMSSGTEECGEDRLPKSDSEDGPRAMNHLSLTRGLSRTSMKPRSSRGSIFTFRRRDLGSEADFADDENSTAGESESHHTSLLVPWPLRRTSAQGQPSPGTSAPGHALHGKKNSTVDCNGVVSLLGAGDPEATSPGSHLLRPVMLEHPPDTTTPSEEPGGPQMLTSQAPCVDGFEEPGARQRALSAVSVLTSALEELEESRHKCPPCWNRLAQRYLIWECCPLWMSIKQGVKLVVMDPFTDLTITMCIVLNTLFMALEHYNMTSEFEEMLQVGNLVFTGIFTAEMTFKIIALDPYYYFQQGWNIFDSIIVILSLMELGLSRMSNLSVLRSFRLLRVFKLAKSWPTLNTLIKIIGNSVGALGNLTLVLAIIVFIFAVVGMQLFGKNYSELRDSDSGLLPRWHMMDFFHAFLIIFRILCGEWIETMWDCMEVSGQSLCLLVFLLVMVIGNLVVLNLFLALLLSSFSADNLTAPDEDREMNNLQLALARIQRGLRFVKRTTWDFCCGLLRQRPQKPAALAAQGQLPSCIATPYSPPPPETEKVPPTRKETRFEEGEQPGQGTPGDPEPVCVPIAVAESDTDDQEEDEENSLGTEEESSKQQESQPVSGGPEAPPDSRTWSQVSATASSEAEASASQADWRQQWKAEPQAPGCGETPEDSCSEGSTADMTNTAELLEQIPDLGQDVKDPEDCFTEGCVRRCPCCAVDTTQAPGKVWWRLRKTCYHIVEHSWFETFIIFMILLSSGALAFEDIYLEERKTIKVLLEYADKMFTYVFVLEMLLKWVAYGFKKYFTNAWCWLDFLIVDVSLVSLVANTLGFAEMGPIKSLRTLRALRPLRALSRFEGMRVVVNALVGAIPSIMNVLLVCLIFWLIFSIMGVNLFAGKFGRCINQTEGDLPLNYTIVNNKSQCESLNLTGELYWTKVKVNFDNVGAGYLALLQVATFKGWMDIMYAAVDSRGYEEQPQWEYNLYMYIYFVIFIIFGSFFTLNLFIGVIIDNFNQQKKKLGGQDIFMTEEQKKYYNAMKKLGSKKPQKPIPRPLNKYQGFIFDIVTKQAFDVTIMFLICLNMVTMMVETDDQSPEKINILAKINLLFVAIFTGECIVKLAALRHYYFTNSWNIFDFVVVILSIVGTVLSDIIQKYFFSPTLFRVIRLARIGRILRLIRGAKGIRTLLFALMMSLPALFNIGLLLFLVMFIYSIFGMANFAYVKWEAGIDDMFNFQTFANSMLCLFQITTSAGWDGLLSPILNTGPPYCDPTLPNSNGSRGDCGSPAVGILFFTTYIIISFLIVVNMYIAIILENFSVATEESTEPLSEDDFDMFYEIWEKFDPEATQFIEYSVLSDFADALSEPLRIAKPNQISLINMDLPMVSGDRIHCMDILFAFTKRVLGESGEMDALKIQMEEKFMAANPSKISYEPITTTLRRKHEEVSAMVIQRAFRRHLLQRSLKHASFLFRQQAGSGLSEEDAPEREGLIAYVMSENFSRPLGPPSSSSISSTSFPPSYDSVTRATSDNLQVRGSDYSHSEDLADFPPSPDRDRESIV

Substance: AahII toxin from Androctonus australis Hector (from UniProt P01484 20-85) (natural protein)
- whole-cell patch clamp on HEK293 cells expressing NaV1.5: factor by which inactivation is slowed against control, [AahII] 75, 150 and 300 nM [1]: 35 fold
- whole-cell patch clamp: inactivation time constant (tau) of NaV1.5 after washout of AahII (75 nM) with control solution [1]: 5.2 ms
- whole-cell patch clamp: tau of NaV1.5 after AahII 75 nM for 7 min followed by 75 nM AahII + 75 nM Nb10 (1:1) up to 14 min [2]: 4.7 ms
- whole-cell patch clamp: tau of NaV1.5 after AahII 75 nM for 7 min followed by 75 nM Nb10 alone until 14 min [3]: 4.6
- whole-cell patch clamp: tau of NaV1.5 with AahII 75 nM perfused for 7 min, before Nb10 alone [3]: 9.6 ms

From article PMC8918821
